To fix the notation:
B1: D327G: modified iCasp9, D327G (protein)
chain: VDGFGDVGALESLRGNADLAYILSMEPCGHCLIINNVNFCRESGLRTRTGSNIDCEKLRRRFSSLHFMVEVKGDLTAKKMVLALLELARQDHGALDCCVVVILSHGCQASHLQFPGAVYGTDGCPVSVEKIVNIFNGTSCPSLGGKPKLFFIQACGGEQKDHGFEVASTSPEDESPGSNPEPDATPFQEGLRTFGQLDAISSLPTPSDIFVSYSTFPGFVSWRDPKSGSWYVETLDDIFEQWAHSEDLQSLLLRVANAVSVKGIYKQMPGCFNFLRKKLFFKTSASRA
B2: Q328K: modified iCasp9, Q328K (protein)
chain: B1 chain with G195D, Q196K
B3: L329K: modified iCasp9, L329K (protein)
chain: B1 chain with G195D, L197K
B4: D327K: modified iCasp9, D327K (protein)
chain: B1 chain with G195K
B5: A331K: modified iCasp9, A331K (protein)
chain: B1 chain with G195D, A199K
B6: T317C: modified iCasp9, T317C (protein)
chain: B1 chain with T185C, G195D
B7: D327R: modified iCasp9, D327R (protein)
chain: B1 chain with G195R
B8: L329G: modified iCasp9, L329G (protein)
chain: B1 chain with G195D, L197G
B9: F326K: modified iCasp9, F326K (protein)
chain: B1 chain with F194K, G195D
B10: Q328R: modified iCasp9, Q328R (protein)
chain: B1 chain with G195D, Q196R
B11: G402Y: modified iCasp9, G402Y (protein, UniProt P55211 1-416, looked up, variant G402Y)
chain: MDEADRRLLRRCRLRLVEELQVDQLWDALLSRELFRPHMIEDIQRAGSGSRRDQARQLIIDLETRGSQALPLFISCLEDTGQDMLASFLRTNRQAAKLSKPTLENLTPVVLRPEIRKPEVLRPETPRPVDIGSGGFGDVGALESLRGNADLAYILSMEPCGHCLIINNVNFCRESGLRTRTGSNIDCEKLRRRFSSLHFMVEVKGDLTAKKMVLALLELAQQDHGALDCCVVVILSHGCQASHLQFPGAVYGTDGCPVSVEKIVNIFNGTSCPSLGGKPKLFFIQACGGEQKDHGFEVASTSPEDESPGSNPEPDATPFQEGLRTFDQLDAISSLPTPSDIFVSYSTFPGFVSWRDPKSGSWYVETLDDIFEQWAHSEDLQSLLLRVANAVSVKGIYKQMPYCFNFLRKKLFFKTS
modifications: FKBP12-F36V fusion (iCasp9), CARD deleted
B12: ^316ATPF^319AVPI: modified iCasp9, ATPF replaced by SMAC/Diablo AVPI (protein, UniProt P55211 1-416, looked up, variant T317V F319I)
chain: B11 chain with T317V, F319I, Y402G
modifications: FKBP12-F36V fusion (iCasp9), CARD deleted
B13: C403P: modified iCasp9, C403P (protein, UniProt P55211 1-416, looked up, variant C403P)
chain: B11 chain with Y402G, C403P
modifications: FKBP12-F36V fusion (iCasp9), CARD deleted
B14: D315A: modified iCasp9, D315A (auto-proteolysis site) (protein, UniProt P55211 1-416, looked up, variant D315A)
chain: B11 chain with D315A, Y402G
modifications: FKBP12-F36V fusion (iCasp9), CARD deleted
B15: F319A: modified iCasp9, F319A (protein, UniProt P55211 1-416, looked up, variant F319A)
chain: B11 chain with F319A, Y402G
modifications: FKBP12-F36V fusion (iCasp9), CARD deleted

Positions count from the first letter of the chain named. Numbers in names are those of the source. Entries after “also recorded” stand apart in the source; their conditions may differ.

The first assay has as its system HEK293T/16 cells. The assay can be described thus: Secreted alkaline phosphatase (SEAP)-based surrogate killing assay of iCasp9 mutants. It counts as cell-based, human. The following applies: SEAP assay without AP1903. As to the method:
Early passage HEK293T/16 cells (ATCC, Manassas, Va.) were maintained in IMDM, GlutaMAX™ (Life Technologies, Carlsbad, Calif.) supplemented with 10% FBS, 100 U/mL penicillin, and 100 […] until transfection in a humidified, 37° C., 5% CO2/95% air atmosphere. Cells in logarithmic-phase growth were transiently transfected with 800 ng to 2 μg of expression plasmid encoding iCasp9 mutants and 500 ng of an expression plasmid encoding SRα promoter driven SEAP per million cells in 15-mL conical tubes. […] GeneJammer® Transfection Reagent at a ratio of 3 μl per ug of plasmid DNA was used to transiently transfect HEK293T/16 cells in the absence of antibiotics. 100 μl or 2 mL of the transfection mixture was added to each well in 96-well or 6-well plate, respectively.
Briefly, after 65° C. heat denaturation for 45 minutes to reduce background caused by endogenous (and serum-derived) alkaline phosphatases that are sensitive to heat, 5 μl of supernatants was added to 95 μl of PBS and added to 100 μl of substrate buffer, containing 1 μl of 100 mM 4-methylumbelliferyl phosphate (4-MUP; Sigma, St. Louis, Mo.) re-suspended in 2 M diethanolamine. Hydrolysis of 4-MUP by SEAP produces a fluorescent […] with excitation/emission (355/460 nm), which can be easily measured. Assays were performed in black opaque 96-well plates to minimize fluorescence leakage between wells. […] of the mixture was seeded onto each well of a 96-well plate. […] For the assay, 4-methylumbelliferyl phosphate substrate was hydrolyzed by SEAP to 4-methylumbelliferon, a metabolite that can be excited with 364 nm and detected with an emission filter of 448 nm. Since SEAP is used as a marker for cell viability, reduced SEAP reading corresponds with increased iCaspase-9 activities.
As for B1, the “Basal Activity (relative to wild type/unmodified Caspase-9)” value is given as “did not lower basal activity; also recorded: Increased”.

Regarding B2, the “Basal Activity (relative to wild type/unmodified Caspase-9)” value was “did not lower basal activity; also recorded: Increased”.

On to B3, for which the “Basal Activity (relative to wild type/unmodified Caspase-9)” value is on record as “did not lower basal activity; also recorded: Increased”.

For the molecule B4, the “Basal Activity (relative to wild type/unmodified Caspase-9)” value is given as “did not lower basal activity; also recorded: Increased”.

With B5, the “Basal Activity (relative to wild type/unmodified Caspase-9)” value is “did not lower basal activity; also recorded: Increased”.

As to B6, the “Basal Activity (relative to wild type/unmodified Caspase-9)” value is “no effect”.

On to B7, for which the “Basal Activity (relative to wild type/unmodified Caspase-9)” value was “did not lower basal activity; also recorded: Increased”.

Regarding B8, the “Basal Activity (relative to wild type/unmodified Caspase-9)” value is listed as “did not lower basal activity; also recorded: Increased”.

As to B9, the “Basal Activity (relative to wild type/unmodified Caspase-9)” value was “did not lower basal activity; also recorded: Increased”.

On to B10, for which the “Basal Activity (relative to wild type/unmodified Caspase-9)” value is given as “did not lower basal activity; also recorded: Increased”.

Take B11: the “Basal Activity (relative to wild type/unmodified Caspase-9)” value was “catalytically inactive and dead”.

With B12, the “Basal Activity (relative to wild type/unmodified Caspase-9)” value is on record as “no effect”.

With B13, the “Basal Activity (relative to wild type/unmodified Caspase-9)” value is “catalytically inactive and dead”.

For B14, the “Basal Activity (relative to wild type/unmodified Caspase-9)” value was “Decreased”.

As to B15, the “Basal Activity (relative to wild type/unmodified Caspase-9)” value is recorded as “no effect”.

The same assay, now with this note: SEAP assay without AP1903; listed as D315.
Regarding B14, the “Basal Activity (relative to wild type/unmodified Caspase-9)” value was “reduced basal activity”.

For the origin of these results see patent publication US20230065562A1, “DUAL CONTROLS FOR THERAPEUTIC CELL ACTIVATION OR ELIMINATION” (Bellicum Pharmaceuticals, Inc., priority 2015, published 2023).
